Data: doi:10.1101/2025.11.20.689565
Changes are numbered by the printed parent chain. Names and notes keep the numbering of the source.

What was measured:
[1] = biological target: T1, C. elegans γ-tubulin complex (γTuC): γ-tubulin TBG-1, GCP2 GIP-2-5Myc, GCP3 GIP-1 and MZT-1, P34475;G5EF84; test: pull-down on γTuC-coated beads, anti-SPD-5 immunoblot; settings: chain shown with the change, binding 2 hours at 4°C, scale: band intensity relative to SPD-5 135-473 without PLK1
[2] = biological target: T1, C. elegans γ-tubulin complex (γTuC): …; test: pull-down on γTuC-coated beads, anti-MBP immunoblot; settings: chain shown with the change, binding 2 hours at 4°C, scale: band intensity relative to SPD-5 1-113 without PLK1
[3] = +PLK1 preincubation (2.0 μM fragment, 500 nM PLK1(T194D), 0.2 mM ATP, 1 hour at 23°C), 75 nM SPD-5 …

T1 sequence (chain, as listed by the source, chain 1 of 4): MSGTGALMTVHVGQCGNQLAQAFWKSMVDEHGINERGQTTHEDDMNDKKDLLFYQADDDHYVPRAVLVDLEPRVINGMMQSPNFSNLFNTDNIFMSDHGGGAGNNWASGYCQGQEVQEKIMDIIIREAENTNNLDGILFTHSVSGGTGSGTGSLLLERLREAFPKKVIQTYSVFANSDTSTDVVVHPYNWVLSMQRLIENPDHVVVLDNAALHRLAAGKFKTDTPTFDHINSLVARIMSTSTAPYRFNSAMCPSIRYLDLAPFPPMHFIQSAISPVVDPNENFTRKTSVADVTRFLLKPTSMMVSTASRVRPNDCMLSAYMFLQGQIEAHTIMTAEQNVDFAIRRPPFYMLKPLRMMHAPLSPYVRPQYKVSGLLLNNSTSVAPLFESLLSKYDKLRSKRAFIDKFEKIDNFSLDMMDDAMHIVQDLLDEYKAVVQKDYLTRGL
T1 sequence (chain, as listed by the source, chain 2 of 4): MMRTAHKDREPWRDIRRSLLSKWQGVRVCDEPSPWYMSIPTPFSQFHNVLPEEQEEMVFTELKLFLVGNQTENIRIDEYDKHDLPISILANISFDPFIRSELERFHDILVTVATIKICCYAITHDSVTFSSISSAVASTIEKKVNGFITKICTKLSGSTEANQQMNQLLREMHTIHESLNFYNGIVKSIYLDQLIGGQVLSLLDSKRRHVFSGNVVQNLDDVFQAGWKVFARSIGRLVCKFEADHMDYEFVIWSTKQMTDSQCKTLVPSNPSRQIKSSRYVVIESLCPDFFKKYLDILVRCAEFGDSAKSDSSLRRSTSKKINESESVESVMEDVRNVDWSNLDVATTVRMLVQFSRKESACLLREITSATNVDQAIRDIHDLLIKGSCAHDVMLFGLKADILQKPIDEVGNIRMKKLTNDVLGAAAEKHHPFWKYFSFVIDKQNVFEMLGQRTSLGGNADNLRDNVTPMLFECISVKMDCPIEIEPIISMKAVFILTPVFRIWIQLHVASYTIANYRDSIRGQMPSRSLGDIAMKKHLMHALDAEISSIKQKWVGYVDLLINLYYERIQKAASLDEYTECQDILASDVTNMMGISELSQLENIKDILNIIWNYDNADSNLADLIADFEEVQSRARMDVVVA
T1 sequence (chain, as listed by the source, chain 3 of 4): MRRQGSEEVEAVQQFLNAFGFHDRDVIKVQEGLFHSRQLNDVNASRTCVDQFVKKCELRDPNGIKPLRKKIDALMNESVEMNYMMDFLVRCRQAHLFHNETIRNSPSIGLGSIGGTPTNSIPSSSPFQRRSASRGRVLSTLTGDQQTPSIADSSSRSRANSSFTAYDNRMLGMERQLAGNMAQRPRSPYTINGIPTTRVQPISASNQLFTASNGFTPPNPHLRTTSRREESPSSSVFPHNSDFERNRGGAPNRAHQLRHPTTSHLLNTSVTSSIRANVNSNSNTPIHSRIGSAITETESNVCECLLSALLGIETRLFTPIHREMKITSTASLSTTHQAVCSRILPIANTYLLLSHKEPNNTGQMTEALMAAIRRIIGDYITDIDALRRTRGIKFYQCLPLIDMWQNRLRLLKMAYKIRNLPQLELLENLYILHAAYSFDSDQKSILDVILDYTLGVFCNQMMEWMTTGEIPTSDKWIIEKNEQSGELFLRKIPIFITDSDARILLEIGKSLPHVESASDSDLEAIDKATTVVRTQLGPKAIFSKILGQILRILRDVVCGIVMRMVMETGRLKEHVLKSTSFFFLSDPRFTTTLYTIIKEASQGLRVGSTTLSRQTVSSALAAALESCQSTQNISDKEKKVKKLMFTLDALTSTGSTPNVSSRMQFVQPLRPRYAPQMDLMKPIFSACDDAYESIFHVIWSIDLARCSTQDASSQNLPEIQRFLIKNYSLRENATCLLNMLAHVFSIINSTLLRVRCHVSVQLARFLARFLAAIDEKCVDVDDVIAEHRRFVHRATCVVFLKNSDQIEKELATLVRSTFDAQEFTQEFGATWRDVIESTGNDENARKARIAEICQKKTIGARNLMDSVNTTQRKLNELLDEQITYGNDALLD
T1 sequence (chain, as listed by the source, chain 4 of 4): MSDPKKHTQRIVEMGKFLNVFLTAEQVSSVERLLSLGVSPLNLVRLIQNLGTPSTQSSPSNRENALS

B1: untagged SPD-5 aa 135-473, PLK1-phosphorylated, P91349 S170A; T178A; T198A (protein)
chain: MQSRIETSEDNFARQMKEFEAQKHAMEERIKELELAATDANNTAVGSFRGTLDDILKKNDPDFALTSGYEERKINDLEAKLLSEIDKVAELEDHIQQLRQELDDQSARLADSENVRAQLEAATGQGILGAAGNAMVPNSTFMIGNGRESQTRDQLNYIDDLETKLADAKKENDKARQALVEYMNKCSKLEHEIRTMVKNSTFDSSSMLLGGQTSDELKIQIGKVNGELNVLRAENRELRIRCDQLTGGDGNLSISLGQSRLMAGIATNDVDSIGQGNETGGTSMRILPRESQLDDLEESKLPLMDTSSAVRNQQQFASMWEDFESVKDSLQNNHNDTLE
Question: B1 was tested. Which response [1, 3] did it give?
Answer: The response was 0.1.

B2: untagged SPD-5 aa 135-473, PLK1-phosphorylated, P91349 T274A; T335A; S339A; S340A (protein)
chain: B1 chain with A36S, A44T, A64T, T140A, T201A, S205A, S206A
Question: Which response [1, 3] does the source give for B2 here?
Answer: The response was 2.8.

B3: untagged SPD-5 aa 135-473, PLK1-phosphorylated, P91349 S170A; T178A; T198A; T274A; T335A; S339A; S340A (protein)
chain: B1 chain with T140A, T201A, S205A, S206A
Question: How did the response [1, 3] turn out when B3 was run?
Answer: Its response is 0.

B4: untagged SPD-5 aa 135-473, not phosphorylated, P91349 S170A; T178A; T198A (protein)
chain: B1 chain
Question: For B4, which response ([1]; no PLK1, 75 nM SPD-5 fragment) is on record?
Answer: The response was 0.7.

B5: untagged SPD-5 aa 135-473, not phosphorylated, P91349 S170A; T178A; T198A; T274A; T335A; S339A; S340A (protein)
chain: B1 chain with T140A, T201A, S205A, S206A
Question: How did the response ([1]; no PLK1, 75 nM SPD-5 fragment) turn out when B5 was run?
Answer: Its response is 0.1.

B6: untagged SPD-5 aa 135-473, not phosphorylated, P91349 T274A; T335A; S339A; S340A (protein)
chain: B1 chain with A36S, A44T, A64T, T140A, T201A, S205A, S206A
Question: Which response ([1]; no PLK1, 75 nM SPD-5 fragment) does the source give for B6 here?
Answer: Its response is 0.1.

B7: MBP-6His-HA (M6HH)-tagged SPD-5 aa 1-113, PLK1-phosphorylated, P91349 S5A; S11A (protein)
chain: MEDNAVLNEDANLEHVEGQPRRSMSQPVLNVEGDKRTSSTSATQQQVLSGAFSSADVRSIPIIQTWEENKALKTKITILRGELQMYQRRYSEAKEASQKRVKEVMDDYVDLKL
Question: How did the response [2, 3] turn out when B7 was run?
Answer: The response was 4.7.

B8: MBP-6His-HA (M6HH)-tagged SPD-5 aa 1-113, not phosphorylated, P91349 S5A; S11A (protein)
chain: B7 chain
Question: How did the response ([2]; no PLK1, 75 nM SPD-5 fragment) turn out when B8 was run?
Answer: The response was 0.6.
